The target of test [1] is T1, human PD-L1^ECD-hFc protein (human, UniProt Q9NZQ7 19-239, biotinylated in the PD-1 binding ELISA (Table 3) and in the Octet assay (Table 12)).
T1 construct: The plain and the biotinylated protein are kept as one molecule; also called PD-L1-hFc; Immunogen A; not shown: human IgG Fc fragment (hFc)
The test is described as follows: ELISA, 0.370 nM mAb. The protocol:
(§1) 100 μL of the diluted recombinant proteins were added to each well of 96-well plate. The plates were sealed with plastic film and incubated at 4° C. overnight. The plates were washed twice with wash buffer (PBS+0.01% (v/v) Tween20), and incubated with blocking buffer (PBS+0.01% (v/v) Tween20+1% (w/w) BSA) at room temperature for 2 hours. The blocking buffer was aspirated away, and 100 μL of purified anti-PD-L1 antibodies were added to each well and incubated for 2 hours at 37° C. The plates were washed three times with wash buffer (PBS+0.01% (v/v) Tween20). HRP-conjugated secondary antibody (Sigma) was added to each well and incubated for 2 hours at 37° C. After the plates were washed three times with wash buffer, 100 μL TMB substrate were added to each well, and the plates were incubated for 30 minutes at room temperature. 100 μL stop solution (0.1N HCl) was added to each well to stop the reaction.
On the technique in general: In an ELISA, binding on a coated surface is turned into a signal by an enzyme label.

Test [2] deals with T2, cyno PD-L1^ECD-hFc protein (cyno, UniProt G7PSE7 19-239).
T2 construct: also called Cyno Monkey PD-L1^ECD-hFc
The test is described as follows: ELISA, 0.370 nM mAb. The procedure:
as §1

For test [3], the target named is T1, human PD-L1^ECD-hFc protein. As to the kind of experiment: ELISA, 3.333 nM mAb. The protocol:
as §1

Test [4] deals with T2, cyno PD-L1^ECD-hFc protein. As to the kind of experiment: ELISA, 3.333 nM mAb. The procedure:
as §1

For test [5], the target named is T3, full length human PD-L1 on cells (human, UniProt Q9NZQ7 19-290).
T3 construct: Also used as the target of the cell-based functional assays (transfected stimulator cells; PD-L1 of the cells in the mixed lymphocyte reaction); also called CHO-K1-hPD-L1; CHOK1-hPD-L1
The test is described as follows: FACS CHO-K1-hPD-L1, 11.11 nM mAb.

The target in test [6] is T4, full length cyno PD-L1 on cells (cyno, UniProt G7PSE7 19-290).
T4 construct: also called CHO-K1-cPD-L1
As to the kind of experiment: FACS CHO-K1-cPD-L1, 11.11 nM mAb. The protocol: (§2) Other CHO-K1 were stably transfected with a pIRES plasmid containing the nucleic acid sequence encoding full length cyno PD-L1 to generate CHO-K1 cells stably expressing cyno PD-L1 (herein referred to as CHO-K1-cPD-L1 cells). […] The culture media was aspirated, and the cells were washed twice with HBSS (Hanks Balanced Salt Solution, Invitrogen). The cells were treated with enzyme-free cell dissociation solution (Versene solution, Invitrogen) and collected. The cells were then washed twice with HBSS, cell counts were determined, and cells were resuspended with HBSS at 2×10⁶ cells/mL. Goat serum was added to the cell suspension to a final concentration of 1%, and the cells were blocked for 30 minutes on ice and then washed twice with HBSS. The cells were collected after centrifugation and resuspended in FACS buffer (HBSS+1% BSA, v/v) at 2×10⁶ cells/mL. 100 μL of the cell suspension were then added to each well of 96-well plate. 100 μL of purified anti-PD-L1 antibodies from Example 2 were added to each well of the 96-well plate and incubated for 2 hours on ice. […] The samples were washed three times with FACS buffer, and 100 μL fixation buffer (4% paraformaldehyde v/v) were added to each well and incubated for 10 minutes. The cells were then washed twice with FACS buffer and resuspended in 100 μL FACS buffer. The mean fluorescence intensity (MFI) was determined using FACS Calibur (BD), and the results are shown in FIGS. 7-8 and in Tables 10-11.

Test [7] deals with T4, full length cyno PD-L1 on cells. As to the kind of experiment: FACS CHO-K1-cPD-L1, 3.70 nM mAb. The protocol:
as §2

Test [8] concerns the target T3, full length human PD-L1 on cells. The test is described as follows: FACS CHO-K1-hPD-L1, 0.14 nM mAb. The procedure:
as §2

For the next test, the target named is T5, hPD-L2 (human, UniProt Q9BQ51 20-219, limits assumed).
T5 construct: Bought protein
T5 sequence (looked up): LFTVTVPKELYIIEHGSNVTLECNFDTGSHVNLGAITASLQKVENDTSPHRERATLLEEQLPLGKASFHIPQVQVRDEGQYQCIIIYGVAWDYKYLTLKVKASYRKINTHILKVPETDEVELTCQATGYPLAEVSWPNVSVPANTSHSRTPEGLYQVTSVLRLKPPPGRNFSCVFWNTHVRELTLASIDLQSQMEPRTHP
As to the kind of experiment: ELISA (numbers in Table 9). The protocol: as §1

Test [9] has as its target T1, human PD-L1^ECD-hFc protein. As to the kind of experiment: ELISA, 100 nM mAb. The procedure: as §1
For test [10], the target named is T4, full length cyno PD-L1 on cells. As to the kind of experiment: FACS CHO-K1-cPD-L1, 10 nM mAb. The protocol: as §2
For test [11] the target is unchanged. The test is described as follows: FACS CHO-K1-cPD-L1, 0.01 nM mAb. The procedure:
as §2

Test [12] shares this target. As to the kind of experiment: FACS CHO-K1-cPD-L1, 0.001 nM mAb as printed (second such column). The procedure: as §2
Test [13] has the same target. As to the kind of experiment: FACS CHO-K1-cPD-L1, 1 nM mAb. The protocol:
as §2

The target of test [14] is T3, full length human PD-L1 on cells. The test is described as follows: FACS CHO-K1-hPD-L1, 0.1 nM mAb.
The target of test [15] is T4, full length cyno PD-L1 on cells. The test is described as follows: FACS CHO-K1-cPD-L1, 0.001 nM mAb. The protocol:
as §2

Test [16] addresses T1, human PD-L1^ECD-hFc protein. As to the kind of experiment: ELISA, 1 nM mAb. The procedure: as §1

Results on six molecules are retold here after US20190010233A1 (JIANGSU HYAMAB PHARMACEUTICAL, published 2019).

T4 sequence (G7PSE7 entry or part of it limits assumed): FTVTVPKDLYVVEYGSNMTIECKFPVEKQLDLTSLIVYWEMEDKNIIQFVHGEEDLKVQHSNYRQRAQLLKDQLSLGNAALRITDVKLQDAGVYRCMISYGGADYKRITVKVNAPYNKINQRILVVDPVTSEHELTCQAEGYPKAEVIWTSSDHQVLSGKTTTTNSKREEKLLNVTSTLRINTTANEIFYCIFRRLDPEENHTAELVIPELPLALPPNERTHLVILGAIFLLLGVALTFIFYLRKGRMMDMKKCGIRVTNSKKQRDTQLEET
T1 sequence (Q9NZQ7 19-239): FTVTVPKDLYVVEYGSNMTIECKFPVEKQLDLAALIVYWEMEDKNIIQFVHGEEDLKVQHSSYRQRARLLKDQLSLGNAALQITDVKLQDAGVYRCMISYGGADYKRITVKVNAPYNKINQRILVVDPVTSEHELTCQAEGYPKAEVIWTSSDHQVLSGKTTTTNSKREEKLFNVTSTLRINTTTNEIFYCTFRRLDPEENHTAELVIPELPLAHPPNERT
T3 sequence (Q9NZQ7 19-290 limits assumed): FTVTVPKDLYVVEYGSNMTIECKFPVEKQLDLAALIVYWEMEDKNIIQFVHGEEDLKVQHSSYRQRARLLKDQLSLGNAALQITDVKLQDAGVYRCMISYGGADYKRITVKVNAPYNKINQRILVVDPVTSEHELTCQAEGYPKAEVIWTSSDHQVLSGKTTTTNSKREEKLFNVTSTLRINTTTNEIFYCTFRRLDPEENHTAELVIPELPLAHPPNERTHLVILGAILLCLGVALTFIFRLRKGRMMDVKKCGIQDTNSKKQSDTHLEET
T2 sequence (G7PSE7 entry or part of it limits assumed): as the sequence (Q9NZQ7 19-239) above, with A33T, A34S, S62N, R68Q, Q82R, F173L, T185A, T192I, H215L counted along it

B1: chimeric anti-PD-L1 antibody 105C5D7 (antibody, V domains shown)
VH: EVQLVESGGGLVQPGGSLRLSCAASGFTFSSYWMSWVRQAPGKGLEWVANIKQDGNEKYYVDSVKGRFTISRDNAKNSLYLQMNSLRAEDTAVYYCARNIKWGDAFDIWGQGTMVTVSS
VL: DIQMTQSPSSLSASVGDRVTITCRASQSISSYLNWYQQKPGKAPKLLIYAASSLQSGVPSRFSGSGSGTDFTLTISSLQPEDFAIYSCQQSYSIPLTFGGGTKVEIK
notes: Purified from hybridoma of Harbour H2L2 mice: human variable regions, rat constant regions
Take B1: the OD450 nm in test [1] came out at 1.19; in test [2], 1.19; in test [3], 1.5; in [4] it was 1.5. The Mean fluorescence intensity amounted to 201 in test [5], 136 in test [6], 142 in test [7] and 73.2 in [8]. Moreover, the binding result in the test with hPD-L2 is given as “no binding”.

B2: chimeric anti-PD-L1 antibody 127D2F3 (antibody, V domains shown)
VH: EVQLVESGGGLVQPGGSLRLSCVASGFTFSSYWMSWVRQAPGKGLEWVANIKQDGSEKYYVDSVKGRLTISRDNAKNSLYLQMKSLRAEDTAVYYCARDPIYSSYFDYWGQGILVTVSS
VL: DIQMTQSPSSLSASVGDRVTITCRASQSISNYLNWYQQKPGKAPKLLIYAASSLQSGVPSRFSGSGSGTDFTLTISSLQPEDFAAYYCQQSYGIPFTFGPGTKVDIK
notes: as for B1
In the case of B2, the values for the OD450 nm in test [9] and in [16] were 2.63 and 2.8, respectively. The Mean fluorescence intensity in test [10] was determined as 105; in [11] it was 3.08; in test [12] it was 1.78; in test [13], 80.5; in test [14], 15.5; in test [15], 1.91.

B3: chimeric anti-PD-L1 antibody 73D3G2 (antibody, V domains shown)
VH: EVQLVESGGGLVQPGGSLRLSCAASGFTFNTYWMNWVRQAPGRGLEWVANIKQDGGEKYYVDSVKGRFTISRDNAKNSLYLQMNSLRAEDTAMYYCARDGRSWYPDAFDIWGQGTVVTVSS
VL: DIQMTQSPSTLSASVGDRVTITCRASQSISTWLAWYQQKLGKAPKLLIYEVSILESGVPSRFSGSGSGTEFTLTISSLQPDDFATYYCQQYHSFSSFGGGTRVEIK
notes: as for B1
For the molecule B3, the OD450 nm was 1.29 in test [1], 1.29 in test [2], 2.03 in test [3] and 2.03 in [4]. For the same molecule, the Mean fluorescence intensity was found to be 114 in test [5], 136 in test [6], 126 in test [7] and 44.3 in test [8]. For the same molecule, in the test with hPD-L2, the binding result is given as “no binding”.

B4: chimeric anti-PD-L1 antibody 78A11F6 (antibody, V domains shown)
VH: EVQLVESGGGLVQPGGSLRLSCAASGITFSSYWMSWVRQTPGKGLEWVANIKQDGSEKYYVKSVKGRFTISRDNAKNSLYLQMNSLRAEDTAVYYCVRDRAVPGTGAFDIWGQGTMVIVSS
VL: DIQMTQSPSTLSASVGDRVTITCRASQSISNWLAWYQQKPGKAPKLLIYKASSLESGVPSRFSGSGSGTEFTLTISSLQPDDFATYYCQQYDSSLFTFGQGTKLEIK
notes: as for B1
Turning to B4, the OD450 nm came to 1.39 in [1], 1.5 in test [2], 1.73 in [3] and 2 in [4]. Moreover, the Mean fluorescence intensity stood at 210 in test [5], 142 in [6], 139 in [7] and 51.5 in test [8]. Further, the binding result with hPD-L2 is “no binding”.

B5: chimeric anti-PD-L1 antibody 73G11B3 (antibody, V domains shown)
VH: EVQLVESGGGLVQPGGSLRLSCVVSGFTFSSYWMSWVRQTPGKGLEWVANIKQDGSEKYYVDSVKGRLTISRDNAKNSLYLQMNSLRAEDTAVYYCVRDRAVPGTGALDIWGQGTMVTVSS
VL: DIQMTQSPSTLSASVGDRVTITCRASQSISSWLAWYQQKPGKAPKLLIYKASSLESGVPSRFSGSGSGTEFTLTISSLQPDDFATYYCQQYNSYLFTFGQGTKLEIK
notes: as for B1
As for B5, the OD450 nm in test [9] stood at 2.69; in test [16], 2.7. The Mean fluorescence intensity in test [10] worked out at 99.2; in test [11], 3.83; in test [12], 1.78; in [13] it was 94.9; in test [14], 17.2; in test [15] it was 2.02.

B6: chimeric anti-PD-L1 antibody 192D9E7 (antibody, V domains shown)
VH: EVQLVESGGGLVQPGGSLRLSCAASGFTFSSYWMSWVRQAPGKGLEWVADIKQDGSEKYYVDSVKGRFTISRDNAKNSLYLQMNSLRAEDTAVYYCTRDKPHWGGVMDAWGQGTSVTVSS
VL: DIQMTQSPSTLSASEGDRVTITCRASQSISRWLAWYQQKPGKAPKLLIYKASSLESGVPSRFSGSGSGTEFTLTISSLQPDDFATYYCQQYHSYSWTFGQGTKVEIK
notes: as for B1
As for B6, the figures for the OD450 nm in [9] and in test [16] were 2.7 and 2.77, respectively. Further, the Mean fluorescence intensity in test [10] amounted to 82.3; in [11], 3.38; in [12], 1.75; in test [13], 77.2; in [14] it was 23.5; in [15] it was 1.93.
